Results taken from a protein production outcome set (Wang et al. 2014).

Assay: label from the status in PepcDB records
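Note: failed if final PepcDB status was selected cloned or expressed and not failed if soluble or beyond.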

Row | Sequence | protein production
1 | MTMKKSEITVALAGNANVGKSVIFNQLTGSNQIVGNWPGKTVERAEGYLKFQGRDIHIIDLPGIYSFSTYSMEEIVSRDFIINEGPDVVINVLDASVLERNLFFTLQLMEMEVPMVICINQVDMARQKGITIDDEKLEKVLGVPVVSTVAVKGRGLQELLRKTVEVADKKTLPRIIEYGEEIETRIGKLMDALPEIPEGYSARWVAIKLLENDPQITAMMPEDVRKLASELAAEIESIHGEPAFSVITSERYAISSMIAAGAQRQEEIKTSLSERLDGFLTHPVYGYISSVLVVGGLLLWTFVVGEFLSDTLTGIFGFFQPVDPKFSGSIESIIWNGAFGGIVAGLTLVIPFVIPFYLMLSYIENSGLLTRVAFMMDAFMRKIGLHGKALIPLILGYGCSVPAIDSTRILETHRERLLAAFAISFAPCAARTILILGLVALFVNVWWAIGLYALDLLIIFIMGKVALKALPGETTGLIMEMHSLKMPSFRVIARQTWTRTRSLIYLVFPIYIIGSALIQLLYALGWLNPISAFMAPLTVGWLKLPVFAGILLILGAVRKEFILLGLVSLVGTNIGAALTAPQILVLTLVGMLYFPCLSTIAILAREFSWRSTSIITLANLGTALFLGGLFARILPLIF | failed
2 | MTMPRLASSRWWYIMPIVFVTYSLAYLDRANYGFAAASGMADDLRITPGLSSLLGALFFLGYFFFQVPGAIYAEKRSVKKLIFVSLILWGGLATLTGMVANVYLLIGIRFLLGVVEAAVMPAMLVYLCHWFTRAERSRANTFLILGNPVTILWMSVVSGYLVEHFSWRWMFIIEGLPAVIWAFIWWRLVDDRPRQAAWLSGSEKRDLEDALAAEQQGIKPVKNYREAFRSPKVIVLSLQYFCWSIGVYGFVLWLPSILKHGANIDIIEAGWLSALPYLAAVIAMLGVSWASDRLQKRKRFVWPPLLIASIAFYGSYALGSEHFWLSYALLVLAGACMYAPYGPFFAIVPEVLPANVAGGAMALINSMGALGSFSGSWLVGYLNGITGGPGASYLFMSGALLLSVLLTVFLNPHADKREPDAARAHASRRAAPAHP | failed
3 | MTMRVVTAPAEPPQGASHVAPSFTRMDTSVLGRWWWTVDRPMLGAVALLIAAGVFLILAAGPPAAGRIGAQTYHFVQRQFLFVPVAGVLVIAVSLLPVLWVRRIAVLLFALFMVLLLGTLFVSSDIKGASRWIAIGPFALQPSEFVKPTFAVVTAWMFASARTQDRFPGNLIAMLLMAVVGALLVAQPDFGMTMVVACVWGTQFFLAGLSLVWVVLLAAVGMIGAVIAYFALPHVQSRVDRFLDPASGDQYQIRQSMKAFMEGGLFGRGPGEGRVKEFLPDAHTDFIFAVAGEEFGLFLCLTIVALFAFLIIRSAIRLRREQNLFVLIAAGGLLTQLGLQALINMASSLSLIPTKGMTLPFISYGGSSLLSTAVAMGMVLALTRRRAHGERT | failed
4 | MTMSTTREIAFLIARILLGVILIAHGWDKFAITGLEGVTGFFDSLGIPAAGIAAIAAAVVELLGGILIILGVFTRIVAAFVAIDMLFAALFAHVSSGIFVTNNGWELTGAIGAGALLLIAVGAGAWSIDGVLAKRKA | failed
5 | MTNKAIKATNEELQQVYNDIPKAYDRANRFISFNQDVKWRADLVKTILKYCKRPKLILDVASGKGELSYTFKKIYKDNSNYEIILSDYAENMLKMALIKDDKVLCSFDALPFREKTFDIVMSSFALHASDNIEDVIREITRVSRKIVGFIAMGKPDSWVRRIYLSIYLKYIMPYIAVLGGAKARDFKYIYYIYERVPTNSQHKRIFEKYIDIKVYEERALNLFYFVVGFPKE | failed
6 | MTNKITERITGHTELIGLIATPIRHSLSPTMHNEAFAKLGLDYVYLAFEVGDKELKDVVQGFRAMNLRGWNVSMPNKTNIHKYLDKLSPAAELVGAVNTVVNDDGVLTGHITDGTGYMRALKEAGHDIIGKKMTICGAGGAATAICIQAALDGVKEISIFNRKDDFYANAEKTVEKINSKTDCKAQLFDIEDHEQLRKEIAESVIFTNATGVGMKPFEGETLLPSADMLRPELIVSDVVYKPTKTRLLEIAEEQGCQTLNGLGMMLWQGAKAFEIWTHKEMPVDYIKEILF | not failed
7 | MTNKQKMRKRRRALLCVFAAFAFSFNPLGKIAYATPKQDTSVVNYVKTQEETSNSIQNQPISSYWYPEDLLKWSANNDKDAKFNKSTVPLAKRVEKDKLDTINDTQNKDVKVVAISIMNANTSGNPSQGSNKFSANTFSYWQYIDKLVYWGGSAGEGLIVPPSPDVTDSAHRNGVPVLGTVFFPMTAHGGKMEWLNKFLEKDANGNFPIVDKLIEVAENYGFDGWFINQETEGTEQEPLTPEHAKLMQELIKQFKAKSNGKFEIMWYDSMTKDGDMDWQNALTDKNEYFLLDGDKNKVADSIFLNFWWTYNSLKDKDLLRVSNEKAKEIGINPYDLYAGIDVQANGYKTPLRWTHYQRDDQAPFTSLGLYCPSWTYFDAKTPEQFQENENRLWVNEHGDPSKTTNAQGVDWRGISTYSVEKSAVTSLPFTTNFNIGNGYDFYVDGNKVSTQDWNNRSLNDIMPTYRWVISNEENNNVKADIDYTTAYYGGNSIKLSGYLAEGKASTIKLYSSDLTLPEGVQFTTTAKANGNTVDMDLVLTFHDGTETTISADKKLGTDWTKLNYDVSPYVGKSIKTISYKLSSPVCVDNFSANLGNITIEIPNSSSKVNISNAKLNDVDFKDGIYAGARLSWSPEGNSSDVHHYEIYRVMNDGTKVLLGATPNTSYYVSDLRRNDKETNTNFEVVAVNKNFNRGNSQSINMEWPAYPAPTASFKVSNTLIAPGQSVTFTNTSSEVTEEIQWKFPGAKVESSTEQNPTVTYEKEGVYPVILTAKNSSGENVETKTELITVTNAAKDGLVNLSLNKSAKASSFVNENEAPQYALDGNVKTKWCAVGSAPHTLTIDLGDIKTIGELEISHAEAGGESSGMNTKAYSFEVSNDGENFTPVLNVDDNTKAISNDAFPVTKARYVRLNIIQPTQGADSAARIYEVAVKGLDGNVDLPPVMNPDDSNKPVDPDQPENPDKPNNPEKPENPDNPGNTDKPVNPDQPGDSEKPETPNKPGDTENPEGKPANPSDLVSKEITENSALLSWKAPEKVESIQEYVVYQDGKEIGRVPTDKTPLEFLVKDLKPNTKYNFEVSSIDKDGKESDKISLEVTTKKKDNGNLPNTGSPIGAGALATTGIALSSAGVYLTLKKKRK | failed
8 | MTNLFLGFLVISFCLLGNLIHAADGSIHDYNNSGGFTKIANARYFVGGSEGIYGSEFLDVHHASSDTPLLKGNSFIRFDDITFVRTKESASKQNSTLAAAGLVEAILFEVKQRDRVGGSFFKSEDMCCTPKLADAGSCNLGEVMISADPNDPEWPKRIPTFFKRGEEEVKMSPEAVIIKKTGLYTVYFMTCDPELDGATIRGRTVWKNRGGYLQGEKAPLKKFYASMLLAYVVLGLVWFPQVAQYWKDGIQLHSHINFVIAFTMGELAFLYLDFVYLDSAGTSPMEVTVWAITLSSMRKALSRLLLLVISSGFGIVRPTLGGITLKMLLIGVLCFVISESLGLAMQFGNISENGMNYLMLSWAILETCFIQWIFRSLSKTLKKLKLNKRNITKLQLYKMFATVLVIMVVLSFAWIYVEVYLYSSLSQFWKVKWIVPTLWYILSYAMLVLICLFWPPSEKPMRYLYVADMEEETEEEDDLSTAETGMNATKAEYERSERKTLLEAFILLLGNIPGEK | failed
9 | MTNMRQVLKTDRLVLEPQSMARFDQWFAMERQRDEAGHRDLTEDQAWLRLCARQGMWDAYACGFYYLLDPVSGEMRGEAGFQFRRRGFGPGFDNHPEAAWAVASAHQGRGLAAEAMQALLAHHDRSSGRQRVVALIARSNLPSLRLAERLGFRGYSDVAFDGAAHLLLERAG | not failed
10 | MTNNAKKEPQQRGKHQVHNVRFYTIKPREIVSLAYSKSSKCLALSRATPVIELWNLEHAPYLDRVIHLPTDSHVESIAWAGNRLFSVDLSGKLIEWDVIKLKQRYEHSPTGNALWSIDVNPAETDIAIGSEEGHINILSIENDEITYKSLFNKQKGRVLCIKFDKTGTKLVTGTEGFVRIWNVLKGTTLHTMTLSEKNVIVWSLQVLSDNTIIAGDSAGFVTVWDADNATQIDSTRVLDKNVFALAVNNKEDRLVCSGMQPPLIRIFSKTKIKREESTSERWIKFLQRDAHKHYVKSLLVIDDQIYSGGRDGILTITSSERMQAHLSQHAPFLKGSVASMAISKKLLLLRYPNSVHLWRLGSVAPQGEDKKKPWALPVGHTEEQLLELPPQKLLQLNVKEHNFIQSAAISSDANWICYSTLKELRISRLKSDPLQVERLVDDLPEELQPASHIIFTKQGDLVLLNPQNNHLSWFTLEEDLVTFKYTIDLSEKCKNTISHVVISSHGEYIVAASSDHIISVWKLHGKQYKHLLNLPRHRAGTTALSMHEDYPRVVVAYANGQLVEYDLVNRIFTCETNEYLIPETRRHCINGISLDPQNRNIFIVHTEGNLYVLERDQHLDPKELVSNSKSKKLSNGNRSSVDGGSKGLSLKTTLSRQHLVHVSRLSPNELVNVSISTNNLLAPLPPPYQRKKFGAS | failed
